Earlier results in article PMC11996608.

Molecular target: core RNA polymerase (Escherichia coli) (UniProt P0A7Z4)

Sequence of RapA (P60240 2-968): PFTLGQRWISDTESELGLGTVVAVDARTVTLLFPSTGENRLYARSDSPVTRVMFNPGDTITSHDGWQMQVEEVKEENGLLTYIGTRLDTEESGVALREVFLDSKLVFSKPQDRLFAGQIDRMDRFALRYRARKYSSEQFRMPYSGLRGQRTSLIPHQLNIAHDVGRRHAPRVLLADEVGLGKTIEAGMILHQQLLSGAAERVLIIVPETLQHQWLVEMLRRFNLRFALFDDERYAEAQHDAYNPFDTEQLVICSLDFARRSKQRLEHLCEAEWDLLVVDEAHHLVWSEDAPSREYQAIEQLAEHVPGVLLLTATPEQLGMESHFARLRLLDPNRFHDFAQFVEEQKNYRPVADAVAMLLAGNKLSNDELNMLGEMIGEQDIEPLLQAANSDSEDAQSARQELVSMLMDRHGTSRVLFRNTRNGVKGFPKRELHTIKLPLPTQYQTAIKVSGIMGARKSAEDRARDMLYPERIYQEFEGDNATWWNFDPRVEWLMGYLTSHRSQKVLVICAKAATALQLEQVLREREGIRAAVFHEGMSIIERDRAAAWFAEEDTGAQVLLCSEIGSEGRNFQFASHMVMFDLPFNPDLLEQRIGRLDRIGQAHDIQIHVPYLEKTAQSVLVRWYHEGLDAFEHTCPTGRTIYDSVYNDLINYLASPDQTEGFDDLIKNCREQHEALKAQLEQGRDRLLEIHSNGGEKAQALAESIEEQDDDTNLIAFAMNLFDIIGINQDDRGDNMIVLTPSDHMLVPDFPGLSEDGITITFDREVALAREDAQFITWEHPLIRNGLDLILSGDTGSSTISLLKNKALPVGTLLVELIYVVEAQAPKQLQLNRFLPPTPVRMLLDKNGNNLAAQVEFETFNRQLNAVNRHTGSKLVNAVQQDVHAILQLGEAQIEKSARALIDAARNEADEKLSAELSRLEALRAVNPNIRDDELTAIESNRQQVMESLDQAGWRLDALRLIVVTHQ

RapA (from UniProt P60240)
Kd: 7.5 nM
